# Test system: dsDNase (shrimp double strand-specific DNase)
# Assay: cleavage_in_vitro
# Conditions: DNA strand of hybrid cleaved, RNA strand almost not; First-Strand buffer, 37 C
sequence,measurement,value
CGCCATCGGAGGTTC / GAACCUCCGAUGGCG [RNA-DNA hybrid dual probe],relative cleavage activity (fraction of dsDNA activity),0.5

# Source: patent US20200048693
